Literature values as cited in paper PMC8959454.

Legend:
[1] = target: CKAP4 ECD (Homo sapiens) (UniProt Q07065)
[2] = target: LRP6 (Homo sapiens) (UniProt O75581)
UniProt O75581, sequence (O75581 20-1370): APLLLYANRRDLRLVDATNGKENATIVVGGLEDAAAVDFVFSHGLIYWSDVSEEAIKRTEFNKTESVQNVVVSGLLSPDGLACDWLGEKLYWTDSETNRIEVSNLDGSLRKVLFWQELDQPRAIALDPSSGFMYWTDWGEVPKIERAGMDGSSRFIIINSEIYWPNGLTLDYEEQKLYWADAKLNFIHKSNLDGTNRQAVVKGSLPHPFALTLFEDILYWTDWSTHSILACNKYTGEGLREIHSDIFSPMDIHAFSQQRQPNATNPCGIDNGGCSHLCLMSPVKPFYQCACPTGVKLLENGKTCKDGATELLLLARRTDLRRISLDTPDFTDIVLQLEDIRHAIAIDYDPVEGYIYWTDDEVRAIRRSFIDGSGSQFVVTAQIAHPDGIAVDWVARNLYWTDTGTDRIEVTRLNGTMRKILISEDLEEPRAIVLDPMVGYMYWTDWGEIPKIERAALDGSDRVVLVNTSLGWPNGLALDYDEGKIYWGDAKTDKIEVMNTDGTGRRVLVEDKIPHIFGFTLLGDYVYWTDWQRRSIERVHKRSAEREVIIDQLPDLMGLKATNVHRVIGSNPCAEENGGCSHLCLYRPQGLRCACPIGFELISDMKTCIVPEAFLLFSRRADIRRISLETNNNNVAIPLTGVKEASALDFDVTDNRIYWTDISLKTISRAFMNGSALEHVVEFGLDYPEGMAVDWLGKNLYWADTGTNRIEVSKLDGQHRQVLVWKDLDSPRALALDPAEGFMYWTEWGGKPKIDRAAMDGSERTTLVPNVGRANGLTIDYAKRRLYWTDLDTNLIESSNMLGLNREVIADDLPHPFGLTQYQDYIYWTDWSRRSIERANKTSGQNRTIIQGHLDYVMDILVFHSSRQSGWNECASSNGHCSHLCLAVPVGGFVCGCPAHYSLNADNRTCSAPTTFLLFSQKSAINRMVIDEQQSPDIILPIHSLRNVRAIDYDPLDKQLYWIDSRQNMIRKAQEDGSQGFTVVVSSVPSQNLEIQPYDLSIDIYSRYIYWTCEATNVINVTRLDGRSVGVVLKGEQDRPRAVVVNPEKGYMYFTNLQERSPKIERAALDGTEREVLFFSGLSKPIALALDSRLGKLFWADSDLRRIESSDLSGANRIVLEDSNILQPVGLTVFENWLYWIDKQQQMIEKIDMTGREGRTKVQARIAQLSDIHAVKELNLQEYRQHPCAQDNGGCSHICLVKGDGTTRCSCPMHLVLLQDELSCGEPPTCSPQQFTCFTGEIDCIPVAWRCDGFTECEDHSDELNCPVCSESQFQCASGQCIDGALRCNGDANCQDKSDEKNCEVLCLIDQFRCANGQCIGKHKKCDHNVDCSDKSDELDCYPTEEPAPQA

UniProt Q07065, sequence (Q07065 128-602): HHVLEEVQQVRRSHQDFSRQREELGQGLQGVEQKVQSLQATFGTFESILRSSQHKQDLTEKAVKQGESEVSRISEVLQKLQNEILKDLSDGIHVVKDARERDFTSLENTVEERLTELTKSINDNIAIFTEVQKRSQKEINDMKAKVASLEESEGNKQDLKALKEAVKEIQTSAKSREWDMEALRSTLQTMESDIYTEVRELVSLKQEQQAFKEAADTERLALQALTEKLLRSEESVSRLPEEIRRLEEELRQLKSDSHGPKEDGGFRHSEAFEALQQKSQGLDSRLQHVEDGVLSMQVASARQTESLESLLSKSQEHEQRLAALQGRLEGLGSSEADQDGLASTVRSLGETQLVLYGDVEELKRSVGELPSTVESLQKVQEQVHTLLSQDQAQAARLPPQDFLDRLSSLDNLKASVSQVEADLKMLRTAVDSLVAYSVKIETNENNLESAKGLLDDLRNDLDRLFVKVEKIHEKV

Kd [1]: 420 pM
Kd [2]: 420 pM
Substance: DKK1 (from UniProt O94907)
